Measurements: US20100247589A1
Where no end group is shown, it is not given here. The star is where a group is joined. Biotin = O=C1N[C@H]2[C@H](CS[C@H]2CCCCC(=O)*)N1

molecular target: tooth pellicle (thin film derived from salivary glycoproteins, formed in a human mouth) (human); test: phage ELISA on pellicle-coated HAP disks, anti-M13-HRP; no-phage control 0.218

Question: With AHPESLGIKYALDGNSDPHA [Pell 1] as the binder, how does the O.D.450 read?
Answer: The O.D.450 was 0.739.

Question: With NGPDMVQSVGKHKNS [Pell 10] as the binder, how does the O.D.450 read?
Answer: The O.D.450 was 0.729.

Question: With NGPEVRQIPANFEKL [Pell 11] as the binder, how does the O.D.450 read?
Answer: Its O.D.450 is 0.607.

Question: NNTSADNPPETDSKHHLSMS [Pell 12] was tested. Which O.D.450 did it give?
Answer: The O.D.450 was 0.521.

Question: Which O.D.450 does the source give for NNTWPEGAGHTMPSTNIRQA [Pell 13] here?
Answer: Its O.D.450 is 0.598.

Question: With NPTATPHMKDPMHSNAHSSA [Pell 14] as the binder, how does the O.D.450 read?
Answer: Its O.D.450 is 0.7.

Question: NPTDHIPANSTNSRVSKGNT [Pell 15] was tested. Which O.D.450 did it give?
Answer: The O.D.450 was 0.567.

Question: How did the O.D.450 turn out when NPTDSTHMMHARNHE [Pell 16] was run?
Answer: The O.D.450 was 0.578.

Question: For QHCITERLHPPCTK [Pell 17], which O.D.450 is on record?
Answer: Its O.D.450 is 0.614.

Question: Which O.D.450 does the source give for TPCAPASFNPHCSR [Pell 18] here?
Answer: Its O.D.450 is 0.416.

Question: With TPCATYPHFSGCRA [Pell 19] as the binder, how does the O.D.450 read?
Answer: The O.D.450 was 0.731.

Question: How did the O.D.450 turn out when ASVSNYPPIHHLATSNTTVN [Pell 2] was run?
Answer: The O.D.450 was 0.75.

Question: For WCTDFCTRSTPTSTSRSTTS [Pell 20], which O.D.450 is on record?
Answer: Its O.D.450 is 0.715.

Question: Which O.D.450 does the source give for DECMEPLNAAHCWR [Pell 3] here?
Answer: The O.D.450 was 0.49.

Question: Which O.D.450 does the source give for DECMHGSDVEFCTS [Pell 4] here?
Answer: Its O.D.450 is 0.664.

Question: Which O.D.450 does the source give for DLCSMQMMNTGCHY [Pell 5] here?
Answer: Its O.D.450 is 0.83.

Question: How did the O.D.450 turn out when DLCSSPSTWGSCIR [Pell 6] was run?
Answer: Its O.D.450 is 0.735.

Question: How did the O.D.450 turn out when DPNESNYENATTVSQPTRHL [Pell 7] was run?
Answer: The O.D.450 was 0.831.

Question: Which O.D.450 does the source give for EPTHPTMRAQMHQSLRSSSP [Pell 8] here?
Answer: The O.D.450 was 0.712.

Question: GNTDTTPPNAVMEPTVQHKW [Pell 9] was tested. Which O.D.450 did it give?
Answer: Its O.D.450 is 0.755.

molecular target: tooth pellicle (thin film derived from salivary glycoproteins, formed in a human mouth) (human); test: ELISA, 20 uM biotinylated peptide on pellicle-coated bovine enamel, streptavidin-HRP, normalized to DenP03; no-peptide control -0.001

Question: SSRPNGNNHTDIPNRSSYTGGSFAK(Biotin) [DenP1-A] was tested. Which O.D.450 (normalized) did it give?
Answer: The O.D.450 (normalized) was 0.154.

Question: Which O.D.450 (normalized) does the source give for SSRPTMTNHVYNSYTEKHSSTHRSK(Biotin) [DenP2-A] here?
Answer: The O.D.450 (normalized) was 0.273.

Question: Which O.D.450 (normalized) does the source give for SSRPVEPATKNMREARSSTQMRRIK(Biotin) [DenP4-A] here?
Answer: The O.D.450 (normalized) was 0.803.

Question: SSRPYLLPKDQTTAPQVTPIVQHKK(Biotin) [DenP5-A] was tested. Which O.D.450 (normalized) did it give?
Answer: Its O.D.450 (normalized) is 0.462.

Question: With SSRPEFPYYNDNPPNPERHTLRK(Biotin) [DenP7-A] as the binder, how does the O.D.450 (normalized) read?
Answer: Its O.D.450 (normalized) is 0.356.

Question: For SSRPDLGTFPNRTLKMAAHK(Biotin) [DenP11-A], which O.D.450 (normalized) is on record?
Answer: Its O.D.450 (normalized) is 0.454.

Question: How did the O.D.450 (normalized) turn out when SSRPFDGIGLGTATRHQNRK(Biotin) [DenP12-A] was run?
Answer: Its O.D.450 (normalized) is 0.475.

Question: How did the O.D.450 (normalized) turn out when SSRPQAAQVHMMQHSRPTTK(Biotin) [DenP13-A] was run?
Answer: The O.D.450 (normalized) was 0.699.

Question: Which O.D.450 (normalized) does the source give for SSRPSEARARTFNDHTTPMPIIK(Biotin) [DenP14-A] here?
Answer: Its O.D.450 (normalized) is 0.269.

Question: For SSRPELDHDSRHYMNGLQRKVTK(Biotin) [DenP15-A], which O.D.450 (normalized) is on record?
Answer: Its O.D.450 (normalized) is 0.46.

Question: SSRPGPQHVLMQDTHQGYAFDNK(Biotin) [DenP16-A] was tested. Which O.D.450 (normalized) did it give?
Answer: The O.D.450 (normalized) was 0.309.

Question: Which O.D.450 (normalized) does the source give for SSRPTTGSSSQADTSASMSIVPAHK(Biotin) [DenP17-A] here?
Answer: The O.D.450 (normalized) was 0.143.

Question: How did the O.D.450 (normalized) turn out when SSRPTYQGVPSWPAVIDDAIRRK(Biotin) [DenP19-A] was run?
Answer: Its O.D.450 (normalized) is 0.712.

Question: How did the O.D.450 (normalized) turn out when SSRPVNPNWVETQALHQPPGNTK(Biotin) [DenP20-A] was run?
Answer: The O.D.450 (normalized) was 0.59.

Question: How did the O.D.450 (normalized) turn out when SSRPIYPNESMSTSNVRGPYHPK(Biotin) [DenP22-A] was run?
Answer: Its O.D.450 (normalized) is 0.354.

Question: With SSRPHDPNHLTHQARTIYRNANHTK(Biotin) [DenP23-A] as the binder, how does the O.D.450 (normalized) read?
Answer: The O.D.450 (normalized) was 0.85.

molecular target: tooth pellicle (thin film derived from salivary glycoproteins, formed in a human mouth) (human); test: phage ELISA on pellicle-coated bovine enamel, anti-M13-HRP, normalized to internal control

Question: IPWWNIRAPLNAGGG [Control (SEQ ID NO: 95)] was tested. Which O.D.450 (normalized) did it give?
Answer: Its O.D.450 (normalized) is 1.

Question: For NGNNHTDIPNRSSYTGGSFA [DenP1], which O.D.450 (normalized) is on record?
Answer: The O.D.450 (normalized) was 1.

Question: For TMTNHVYNSYTEKHSSTHRS [DenP2], which O.D.450 (normalized) is on record?
Answer: Its O.D.450 (normalized) is 1.95.

Question: VEPATKNMREARSSTQMRRI [DenP4] was tested. Which O.D.450 (normalized) did it give?
Answer: Its O.D.450 (normalized) is 1.42.

Question: Which O.D.450 (normalized) does the source give for YLLPKDQTTAPQVTPIVQHK [DenP5] here?
Answer: The O.D.450 (normalized) was 1.09.

Question: For EFPYYNDNPPNPERHTLR [DenP7], which O.D.450 (normalized) is on record?
Answer: Its O.D.450 (normalized) is 1.5.

Question: How did the O.D.450 (normalized) turn out when GMPTRYYHNTPPHLTPKF [DenP8] was run?
Answer: Its O.D.450 (normalized) is 1.18.

Question: HKNAIQPVNDATTLDTTM [DenP9] was tested. Which O.D.450 (normalized) did it give?
Answer: The O.D.450 (normalized) was 1.36.

Question: For AVVPADLNDHANHLS [DenP10], which O.D.450 (normalized) is on record?
Answer: Its O.D.450 (normalized) is 1.62.

Question: Which O.D.450 (normalized) does the source give for DLGTFPNRTLKMAAH [DenP11] here?
Answer: Its O.D.450 (normalized) is 1.66.

Question: For FDGIGLGTATRHQNR [DenP12], which O.D.450 (normalized) is on record?
Answer: Its O.D.450 (normalized) is 2.08.

Question: With QAAQVHMMQHSRPTT [DenP13] as the binder, how does the O.D.450 (normalized) read?
Answer: The O.D.450 (normalized) was 0.845.

Question: For SEARARTFNDHTTPMPII [DenP14], which O.D.450 (normalized) is on record?
Answer: The O.D.450 (normalized) was 2.5.

Question: With ELDHDSRHYMNGLQRKVT [DenP15] as the binder, how does the O.D.450 (normalized) read?
Answer: Its O.D.450 (normalized) is 1.11.

Question: For GPQHVLMQDTHQGYAFDN [DenP16], which O.D.450 (normalized) is on record?
Answer: Its O.D.450 (normalized) is 2.19.

Question: With TTGSSSQADTSASMSIVPAH [DenP17] as the binder, how does the O.D.450 (normalized) read?
Answer: Its O.D.450 (normalized) is 0.971.

Question: With KAPIANMLQPHSYQYSVA [DenP18] as the binder, how does the O.D.450 (normalized) read?
Answer: The O.D.450 (normalized) was 1.14.

Question: How did the O.D.450 (normalized) turn out when TYQGVPSWPAVIDDAIRR [DenP19] was run?
Answer: Its O.D.450 (normalized) is 1.05.

Question: With VNPNWVETQALHQPPGNT [DenP20] as the binder, how does the O.D.450 (normalized) read?
Answer: Its O.D.450 (normalized) is 1.3.

Question: With DHNNRQHAVEVRENKTHTAR [DenP21] as the binder, how does the O.D.450 (normalized) read?
Answer: The O.D.450 (normalized) was 0.728.

Question: With IYPNESMSTSNVRGPYHP [DenP22] as the binder, how does the O.D.450 (normalized) read?
Answer: Its O.D.450 (normalized) is 1.42.

Question: Which O.D.450 (normalized) does the source give for HDPNHLTHQARTIYRNANHT [DenP23] here?
Answer: Its O.D.450 (normalized) is 1.24.

Question: Which O.D.450 (normalized) does the source give for SNATMYNIQSHSHHQ [DenP24] here?
Answer: The O.D.450 (normalized) was 0.979.

Question: With ANELSTYAQTNPGSG [DenP25] as the binder, how does the O.D.450 (normalized) read?
Answer: The O.D.450 (normalized) was 0.909.

Question: For DTIHPNKMKSPSSPL [DenP26], which O.D.450 (normalized) is on record?
Answer: Its O.D.450 (normalized) is 1.04.

Question: How did the O.D.450 (normalized) turn out when APPTYQTASYPHNLPSKRKM [DenP28] was run?
Answer: Its O.D.450 (normalized) is 1.2.

Question: QVPDYLSPTHQKKAFLEIPT [DenP29] was tested. Which O.D.450 (normalized) did it give?
Answer: The O.D.450 (normalized) was 0.976.

Question: Which O.D.450 (normalized) does the source give for TNDLHANPFTGTYIAPDPTS [DenP30] here?
Answer: Its O.D.450 (normalized) is 1.08.

Question: Which O.D.450 (normalized) does the source give for HKNENIMQYNVNDRWHITPA [DenP32] here?
Answer: Its O.D.450 (normalized) is 1.44.
